# ± gives the uncertainty stated by the source.
# Assay: self-splicing fitness, log relative to wild type (ln ratio); higher = more splicing; Tetrahymena group I intron in knt gene, E. coli kanamycin selection, DiMSum; sequences stand for … in CUCUCU…GGAGGGAAAAGUUAUCAGGCAUGCACCUGGUAGCUAGUCUUUAAACCAAUAGAUUGCAUCGGUUUAAAAGGCAAGACCGUCAAAUUGCGGGAAAGGGGUCAACAGCCGUUCAGUACCAAGUCUCAGGGGAAACUUUGAGAUGGCCUUGCAAAGGGUAUGGUAAUAAGCUGACGGACAUGGUCCUAACCACGCAGCCAAGUCCUAAGUCAACAGAUCUUCUGUUGAUAUGGAUGCAGUUCACAGACUAAAUGUCGGUCGGGGAAGAUGUAUUCUUCUCAUAAGAUAUAGUCGGACCUCUCCUUAAUGGGAGCUAGCGGAUGAAGUGAUGCAACACUGGAGCCGCUGGGAACUAAUUUGUAUGCGAAAGUAUAUUGAUUAGUUUUGGAGUACUCGUGGUCG
# Outline: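 Six replicate transformations of E. coli BL21(DE3) with a pET-22b(+) library were grown overnight at 37°C or 30°C. The library randomised all eight P1ex-region intron nucleotides, the intron lying in the knt kanamycin-resistance gene, and plates were LB agar with or without 25 μg/mL kanamycin plus 100 μg/mL carbenicillin, 50 μM IPTG and 0.2% rhamnose. Pooled colonies were amplicon-sequenced on an Illumina HiSeq 2500, and fitness is the DiMSum error-weighted combination of wild-type-normalised replicate fold changes, kanamycin versus none.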
Sequence,self-splicing fitness (ln) (30 °C),self-splicing fitness (ln) (37 °C)
UCCAAGCAAUAUUACGCCUA,-0.968 ± 0.12,0.0562 ± 0.1
UCCAAGCAAUAUUACGCUGG,-4.72 ± 0.28,-1.81 ± 0.18
UCCAAGCAAUAUUACGCUUC,-3.36 ± 0.15,-4.24 ± 0.2
UCCAAGCAAUAUUACGGACU,-3.5 ± 0.21,-2.28 ± 0.18
UCCAAGCAAUAUUACGGCUC,-3.84 ± 0.37,
UCCAAGCAAUAUUACGGGGU,-2.76 ± 0.11,-1.96 ± 0.13
UCCAAGCAAUAUUACGGGUG,-1.63 ± 0.05,-0.583 ± 0.06
UCCAAGCAAUAUUACGGUGA,-0.389 ± 0.054,0.493 ± 0.077
UCCAAGCAAUAUUACGGUGU,-0.788 ± 0.047,0.18 ± 0.066
UCCAAGCAAUAUUACGGUUU,-3.75 ± 0.2,-2.48 ± 0.21
UCCAAGCAAUAUUACGUCUC,-3.53 ± 0.32,-2.02 ± 0.46
UCCAAGCAAUAUUACGUGUC,-3.42 ± 0.12,-2.94 ± 0.12
UCCAAGCAAUAUUACGUUCC,,-1.57 ± 0.31
UCCCAGCAAUAUUACGAAGG,-3.68 ± 0.23,-1.63 ± 0.23
UCCCAGCAAUAUUACGACAG,,-3.55 ± 0.37
UCCCAGCAAUAUUACGACCA,-1.65 ± 0.13,-1.06 ± 0.23
UCCCAGCAAUAUUACGAGAC,-3.6 ± 0.28,-0.749 ± 0.16
UCCCAGCAAUAUUACGAGAU,-3.57 ± 0.23,-2.66 ± 0.17
UCCCAGCAAUAUUACGAGUA,-1 ± 0.072,-0.558 ± 0.069
UCCCAGCAAUAUUACGAUCA,-1.48 ± 0.14,-0.722 ± 0.14
UCCCAGCAAUAUUACGAUUC,-4.67 ± 0.32,-1.97 ± 0.14
UCCCAGCAAUAUUACGCCGG,-2.84 ± 0.28,-1.21 ± 0.3
UCCCAGCAAUAUUACGCGCU,-4.15 ± 0.33,-2.84 ± 0.34
UCCCAGCAAUAUUACGCUAU,-4.27 ± 0.21,-1.31 ± 0.11
UCCCAGCAAUAUUACGGCAU,-2.77 ± 0.11,-1.01 ± 0.11
UCCCAGCAAUAUUACGGCUA,-1.31 ± 0.12,-1.19 ± 0.12

Sequence,self-splicing fitness (ln) (30 °C),self-splicing fitness (ln) (37 °C)
UCCCAGCAAUAUUACGUCCG,,-2.06 ± 0.47
UCCCAGCAAUAUUACGUCGG,-2.16 ± 0.13,-2.59 ± 0.23
UCCCAGCAAUAUUACGUGGG,-3.37 ± 0.1,-2.85 ± 0.16
UCCCAGCAAUAUUACGUGUA,0.0644 ± 0.061,-0.0313 ± 0.073
UCCGAGCAAUAUUACGACAC,-2.81 ± 0.21,-2.33 ± 0.23
UCCGAGCAAUAUUACGACCU,-3.35 ± 0.26,-2.74 ± 0.36
UCCGAGCAAUAUUACGAGAC,-3.1 ± 0.32,-2.81 ± 0.4
UCCGAGCAAUAUUACGCAAU,,-2.91 ± 0.34
UCCGAGCAAUAUUACGCACG,-3.01 ± 0.43,
UCCGAGCAAUAUUACGCCGC,,-2.15 ± 0.49
UCCGAGCAAUAUUACGCCGG,-2.87 ± 0.36,-2.15 ± 0.28
UCCGAGCAAUAUUACGCCUU,-2.35 ± 0.35,
UCCGAGCAAUAUUACGCGAG,,-1.2 ± 0.24
UCCGAGCAAUAUUACGGAGA,-1.83 ± 0.18,-1.7 ± 0.27
UCCGAGCAAUAUUACGGAGU,-3.73 ± 0.21,-2.74 ± 0.22
UCCGAGCAAUAUUACGGCGC,,-3.02 ± 0.37
UCCGAGCAAUAUUACGGCUG,-2.83 ± 0.19,-1.6 ± 0.29
UCCGAGCAAUAUUACGGGAC,-3.59 ± 0.18,-2.2 ± 0.15
UCCGAGCAAUAUUACGGGAU,-3.44 ± 0.33,
UCCGAGCAAUAUUACGUCAA,-2.89 ± 0.26,-2.27 ± 0.36
UCCGAGCAAUAUUACGUCGA,-1.21 ± 0.16,-0.238 ± 0.13
UCCGAGCAAUAUUACGUGGA,-2.47 ± 0.17,-2.52 ± 0.19
UCCGAGCAAUAUUACGUGUA,-2.55 ± 0.086,-1.9 ± 0.082
UCCGAGCAAUAUUACGUUUC,-3.39 ± 0.22,-2.11 ± 0.34
UCCUAGCAAUAUUACGAAGU,-1.47 ± 0.1,-0.726 ± 0.14
UCCUAGCAAUAUUACGACAA,,-2.04 ± 0.29

Sequence,self-splicing fitness (ln) (30 °C),self-splicing fitness (ln) (37 °C)
UCCUAGCAAUAUUACGACGC,-2.35 ± 0.17,-2.02 ± 0.2
UCCUAGCAAUAUUACGAGAU,-2.85 ± 0.16,-1.7 ± 0.19
UCCUAGCAAUAUUACGAUAA,-3.25 ± 0.29,-1.56 ± 0.17
UCCUAGCAAUAUUACGAUAC,-3.42 ± 0.35,-2.41 ± 0.44
UCCUAGCAAUAUUACGCACG,-3.34 ± 0.37,-1.87 ± 0.47
UCCUAGCAAUAUUACGCAGA,-1.87 ± 0.2,-0.401 ± 0.15
UCCUAGCAAUAUUACGCCCC,-2.75 ± 0.45,-2.12 ± 0.42
UCCUAGCAAUAUUACGCCGC,-3.1 ± 0.26,-3.49 ± 0.35
UCCUAGCAAUAUUACGCGGC,-3.42 ± 0.44,
UCCUAGCAAUAUUACGCUGU,-2.52 ± 0.22,-2.23 ± 0.27
UCCUAGCAAUAUUACGCUUG,-3.79 ± 0.21,-2.46 ± 0.17
UCCUAGCAAUAUUACGUACU,-3.41 ± 0.3,-2 ± 0.26
UCCUAGCAAUAUUACGUGAG,-2.64 ± 0.14,-1.94 ± 0.17
UCCUAGCAAUAUUACGUUCA,-2.91 ± 0.35,-2.38 ± 0.25
UCGAAGCAAUAUUACGACAA,-1.59 ± 0.14,-1.07 ± 0.15
UCGAAGCAAUAUUACGAGCU,-3.7 ± 0.47,-1.24 ± 0.39
UCGAAGCAAUAUUACGAGGC,,-2.15 ± 0.49
UCGAAGCAAUAUUACGAUCA,-1.46 ± 0.18,-0.436 ± 0.23
UCGAAGCAAUAUUACGCAAG,-2.17 ± 0.12,-1.6 ± 0.13
UCGAAGCAAUAUUACGCAUA,-3.01 ± 0.36,-2.72 ± 0.26
UCGAAGCAAUAUUACGCUGC,-3.55 ± 0.43,-1.49 ± 0.4
UCGAAGCAAUAUUACGCUUG,,-2.64 ± 0.26
UCGAAGCAAUAUUACGGACC,-3.46 ± 0.33,-2.02 ± 0.34
UCGAAGCAAUAUUACGGAUU,-3.96 ± 0.32,-2.56 ± 0.25
UCGAAGCAAUAUUACGGCAC,-1.74 ± 0.23,-1.95 ± 0.32
UCGAAGCAAUAUUACGGCAG,-2.11 ± 0.097,-0.963 ± 0.11

Sequence,self-splicing fitness (ln) (30 °C),self-splicing fitness (ln) (37 °C)
UCGAAGCAAUAUUACGGGAC,-3.19 ± 0.47,-3.17 ± 0.33
UCGAAGCAAUAUUACGGUAC,-4.43 ± 0.39,
UCGAAGCAAUAUUACGGUUG,-1.65 ± 0.097,-0.93 ± 0.14
UCGAAGCAAUAUUACGUCUC,-2.49 ± 0.15,-2.28 ± 0.32
UCGAAGCAAUAUUACGUCUU,-3.87 ± 0.14,-2.29 ± 0.15
UCGAAGCAAUAUUACGUGCC,-2.86 ± 0.42,
UCGAAGCAAUAUUACGUGGC,,-2.78 ± 0.23
UCGCAGCAAUAUUACGAACG,-2.63 ± 0.39,-1.05 ± 0.3
UCGCAGCAAUAUUACGACGU,-1.46 ± 0.076,-0.706 ± 0.074
UCGCAGCAAUAUUACGAGGA,-2.88 ± 0.19,-0.7 ± 0.12
UCGCAGCAAUAUUACGAGUA,-2.36 ± 0.14,-0.752 ± 0.12
UCGCAGCAAUAUUACGAGUU,-4.47 ± 0.28,-1.95 ± 0.23
UCGCAGCAAUAUUACGCCGC,,-1.21 ± 0.32
UCGCAGCAAUAUUACGCCUG,-3.14 ± 0.23,-1.28 ± 0.2
UCGCAGCAAUAUUACGCGUC,-3.42 ± 0.16,-1.8 ± 0.14
UCGCAGCAAUAUUACGCUGC,-2.62 ± 0.49,-0.264 ± 0.26
UCGCAGCAAUAUUACGCUGU,-3.13 ± 0.14,-3.02 ± 0.19
UCGCAGCAAUAUUACGGAAA,-2.71 ± 0.21,-1.57 ± 0.17
UCGCAGCAAUAUUACGGAAC,-1.51 ± 0.32,-2.53 ± 0.41
UCGCAGCAAUAUUACGGACC,-3.5 ± 0.41,-2.69 ± 0.33
UCGCAGCAAUAUUACGGAGC,-3.54 ± 0.35,-1.89 ± 0.26
UCGCAGCAAUAUUACGGAGU,-2.32 ± 0.21,-1.92 ± 0.23
UCGCAGCAAUAUUACGGCAC,-1.94 ± 0.34,-2.67 ± 0.29

# — the supplement of paper PMC7877785
